US20190248863A1
Positions of bridges follow the written chain, without caps; N, C: chain ends. Chains are numbered I, II in the order given. No end group written: not given here.

Target: human RXFP2 (human), Q8WXD0
Assay: cell-based or functional assay

human RXFP2 (human), Q8WXD0, sequence (Q8WXD0 whole entry): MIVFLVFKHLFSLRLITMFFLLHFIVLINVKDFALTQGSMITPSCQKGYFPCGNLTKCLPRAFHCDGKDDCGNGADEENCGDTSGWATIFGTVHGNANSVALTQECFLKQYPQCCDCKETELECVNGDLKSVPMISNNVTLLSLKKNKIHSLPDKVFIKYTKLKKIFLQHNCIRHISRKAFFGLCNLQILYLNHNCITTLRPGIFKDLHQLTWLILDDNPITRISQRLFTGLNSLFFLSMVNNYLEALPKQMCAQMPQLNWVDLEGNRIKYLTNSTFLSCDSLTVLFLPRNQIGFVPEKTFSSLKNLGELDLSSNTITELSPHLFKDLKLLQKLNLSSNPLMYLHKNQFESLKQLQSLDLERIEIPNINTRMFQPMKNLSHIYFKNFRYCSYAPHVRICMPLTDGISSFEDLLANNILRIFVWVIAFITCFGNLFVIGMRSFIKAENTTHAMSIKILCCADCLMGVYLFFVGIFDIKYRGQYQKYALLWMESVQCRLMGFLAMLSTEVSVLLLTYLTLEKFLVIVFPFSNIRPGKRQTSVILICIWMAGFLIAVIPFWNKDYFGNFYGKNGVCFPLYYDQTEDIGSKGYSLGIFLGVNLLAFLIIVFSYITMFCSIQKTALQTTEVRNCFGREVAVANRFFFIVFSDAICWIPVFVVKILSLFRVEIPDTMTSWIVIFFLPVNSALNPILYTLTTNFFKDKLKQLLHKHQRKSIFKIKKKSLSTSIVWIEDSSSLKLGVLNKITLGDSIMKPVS

B1: wild-type human relaxin 2 (WT-RLX) (ligand)
chain 1: QLYSALANKCCHVGCTKRSLARFC
chain 2: DSWMEEVIKLCGRELVRAQIAICGMSTWS
modifications: disulfide I:10-I:15, I:11-II:11, I:24-II:23
With B1 the cAMP Assay EC50 (nM), human RXFP2/CHO-K1 cells was 5.5 nM and the fold less potent than INSL3 (cAMP assay EC50, human RXFP2/CHO-K1 cells) was 10 fold.

B2: RLX-A-AQ1-20KPEG (ligand)
chain 1: XLYSALANKCCHVGCTKRSLARFC
chain 2: ASWMEEVIKLCGRELVRAQIAICGMSTWS
modifications: here or on the partner: para-acetylphenylalanine (pAcF, X) at position 1 of the A chain, linked to a 20 kDa PEG via an oxime linkage
B2 showed a Maximal cAMP stimulation by RLX-A-AQ1-20KPEG compared to WT-RLX (percent), AVG, hRXFP2 of 99%, a Potency Ratio (RLX-A-AQ1-20KPEG/WT-RLX), cAMP assay of 32 fold and an RLX-A-AQ1-20KPEG Potency Ratio (hRXFP1-1.0), cAMP assay of 54 fold. For the same binder, the cAMP Assay EC50 (nM), human RXFP2/CHO-K1 cells was 174 nM.
